In patent US20150309057A1, “Giant Liposome Array for High-throughput Lipid-Interaction Screening” (EUROPEAN MOLECULAR BIOLOGY LABORATORY (EMBL), priority 2012, published 2015):

What was measured:
[1] = Liposome array cooperative membrane recruitment (NBI); conditions: GFP-tagged fusion, cooperative binding
Description: FIG. 13: High-throughput image processing and calculation of normalized binding intensity. (a) Image processing pipeline. Multiple images are acquired, one exposure time for Atto647 and multiple exposure times for GFP to capture broad range of binding intensities, from strong (short exp. times) to weak (longer exp. times). All images are then processed with CellProfiler software. After removal of background, the Atto647 image is used for segmentation to obtain a mask representing position of liposome membranes. In parallel the combination of overexposed pixels from both channels (Atto647 and GFP) is removed from every pair of Atto647 and GFP image. Subsequently, a mask is applied to all filtered (i.e. without overexposed pixels) images. Number of pixels matching with the mask and their mean fluorescence intensity is extracted from all images (i.e. both channels and every exposure time). Normalized binding intensity (NBI) is then calculated as a ratio of mean fluorescence intensity from GFP channel and mean fluorescence intensity from Atto647 channel for every pair of images. (b) Image segmentation and liposome counting. […] CellProfiler software is used to segment the image to retrieve a mask representing liposome membranes, and also to search for centers of liposomes that are then used for estimating a number of liposomes analyzed per image. […]

[2] = Liposome array lipid-binding profile, normalized binding intensity (NBI); conditions: GFP-tagged fusion, cell lysate, 20 min incubation
Description: (§1) FIG. 13: High-throughput image processing and calculation of normalized binding intensity. (a) Image processing pipeline. Multiple images are acquired, one exposure time for Atto647 and multiple exposure times for GFP to capture broad range of binding intensities, from strong (short exp. times) to weak (longer exp. times). All images are then processed with CellProfiler software. After removal of background, the Atto647 image is used for segmentation to obtain a mask representing position of liposome membranes. In parallel the combination of overexposed pixels from both channels (Atto647 and GFP) is removed from every pair of Atto647 and GFP image. Subsequently, a mask is applied to all filtered (i.e. without overexposed pixels) images. Number of pixels matching with the mask and their mean fluorescence intensity is extracted from all images (i.e. both channels and every exposure time). Normalized binding intensity (NBI) is then calculated as a ratio of mean fluorescence intensity from GFP channel and mean fluorescence intensity from Atto647 channel for every pair of images. […] CellProfiler software is used to segment the image to retrieve a mask representing liposome membranes, and also to search for centers of liposomes that are then used for estimating a number of liposomes analyzed per image. […] Fluorescence signal was analysed via a high-throughput image analysis pipeline (FIG. 13). […]

[3] = Akt PH domain binding to liposome array, wide-field fluorescence microscopy; conditions: E. coli lysate with fluorescently labelled domain, 30 minutes incubation, PBS wash
Description: (§2) The Akt Pleckstrin Homology (PH) domain (positions 6 to 110) is known to specifically bind to PI-(3,4)-P2 and PI-(3,4,5)-P3 and is thus, used as a model system to evaluate the specificity and sensitivity of assays performed using the liposome array. The fluorescently labelled Akt PH domain is expressed in Escherichia coli, cells are lysed by sonication and after a centrifugation at 10000 g, supernantant is recovered and injected in the microchip. Several liposome arrays each comprising liposomes formed from different lipids are produced. Liposomes either comprised POPC only, or a […] mol:mol mixture of POPC:DOPS, POPC:PI3P, POPC:PI4P, POPC:PI(3,4)P2, POPC:PI(3,5)P2, POPC:PI(4,5)P2, POPC:PI(3,4,5)P3 (all of which are purchased from Avanti polar lipids) as shown in FIG. 11(a) to (h), respectively.
(§3) E. coli lysate comprising the fluorescently labelled Akt PH domain is applied to the liposome array and incubated 30 minutes and washed with PBS buffer before imaging.

[4] = Liposome array lipid-binding profile, normalized binding intensity (NBI); conditions: GFP-tagged fusion, cell lysate, 20 min incubation; remark: listed apart in the source
Description: as §1

[5] = Akt PH domain binding to liposome array, wide-field fluorescence microscopy; conditions: E. coli lysate with fluorescently labelled domain, 30 minutes incubation, PBS wash; remark: listed apart in the source
Description: as §2, §3

[6] = Liposome array lipid-binding profile, normalized binding intensity (NBI); conditions: GFP-tagged fusion, cell lysate, 20 min incubation; remark: listed apart in the source
Description: as §1

Molecule | membrane recruitment [1] | interaction confirmed by NBI profile [2] | binding to liposomes [3] | interaction confirmed by NBI profile [4] | binding to liposomes [5] | interaction confirmed by NBI profile [6]
Pkcγ: protein kinase C-γ, GFP-tagged fusion | calcium-dependent recruitment |  |  |  |  | 
Akt PH domain: Akt Pleckstrin Homology (PH) domain (positions 6 to 110), fluorescently labelled, expressed in Escherichia coli (protein, UniProt P31749 6-110, looked up, fragment, PH domain fluorescent label, Akt Pleckstrin Homology (PH) domain (positions 6 to 110), fluorescently labelled, expressed in Escherichia coli) IVKEGWLHKRGEYIKTWRPRYFLLKNDGTFIGYKERPQDVDQREAPLNNFSVAQCQLMKTERPRPNTFIIRCLQWTTVIERTFHVETPEEREEWTTAIQTVADGL |  | interactions | binds | interactions | binds | 
Hsv2: Hsv2 protein (PROPPIN domain), GFP-tagged fusion (protein, UniProt P50079 1-448, looked up, GFP tag, Hsv2 protein (PROPPIN domain), GFP-tagged fusion) SVP1-like protein 2: MDVRRPIREAVNNRRKPKFLSVSFNQDDSCFSVALENGFRIFNTDPLTSKLSKTFKESATNQSRGTGIGYTRMLYRTNYIALVGGGKRPRHALNKLIIWDDLLQKETITLKFMSSIKDVFLSRIHIVVVLENTIEIFQFQTNPQRICPILDIPPNGSVDYVVCSSKHLQSQASQSQSKILEIIAFPSNKCVGQIQVADLSQIKYNSQNPKESALLPTSIIKAHKNPIKLVRLNRQGTMVATCSVQGTLIRIFSTHNGTLIKEFRRGVDKADIYEMSFSPNGSKLAVLSNKQTLHIFQIFETTNTETNTPDHSRANGSSHPLKNYIPKGLWRPKYLDSVWSICNAHLKNPIFDAHRNDNSGDVTHDNEFYKDRCRIGWCQDSNNREQDDSLVLVWQNSGIWEKFVILEKEQQDSSKTHYSLNESLRNEDTKSAGEPTRWELVRESWREL |  |  |  | interactions |  | interactions
